Assay results: patent US20190255310A1, “KIT FOR IN SITU DELIVERY OF A COMPOUND OF INTEREST” (Defymed, priority 2016, published 2019)

Tested on: diabetic rats
Assay: Insulin delivery through catheter and implanted pocket in diabetic rats, plasmatic glycaemia
Type: in vivo, rat
Protocol: Rapid Insulin was injected through a catheter linked to a pocket as disclosed in the examples of WO 2015/086550 (three layer, including one of non-woven polymer).
The pocket was implanted in the intraperitoneal cavity of rats.

Substance: insulin
- diffusion of insulin out of the device (inferred from glycaemia kinetics, pocket implanted intraperitoneally): instant diffusion
- plasmatic glycaemia (insulin injected through catheter linked to pocket implanted in the intraperitoneal cavity (FIG. 2, circles)): rapid decrease of plasmatic glycaemia
